Values quoted from earlier work as cited in publication PMC9871243.
pKd: −log10 of the molar value.

Experiments:
[1] = test system: Influenza A virus virion (cited work), hemagglutinin (Influenza A virus); conditions: modifications in the cited assays not stated, PBS, pH and binding temperature not stated
[2] = test system: Influenza A virus hemagglutinin (cited work) (Influenza A virus); conditions: modifications in the cited assays not stated, PBS, pH and binding temperature not stated

TTGGGTTATTTTGGGAGGGCGGGGGTT [RHA0385 (as in cited works)]
pKd [1]: 11.96
pKd [2]: 9.22
